Test results from the nanobody polyreactivity screen of Harvey et al. (2022).

Assay: yeast display, Sf9 membrane polyspecificity reagent, FACS + sequencing; frameworks hold sequencing errors
Outline: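 Synthetic nanobody libraries on Saccharomyces cerevisiae BJ5465 were galactose-induced for 36–48 hours, stained 1 hour at 4 °C with 10% biotinylated, detergent-solubilized Sf9 membrane reagent and enriched on streptavidin microbeads. FACS then separated cells into low and high (top ~1%) gates by anti-HA (expression) and streptavidin (reagent binding) fluorescence. Genes were colony-PCR amplified, MiSeq 2 × 250 sequenced and CDR-length filtered. A clone's polyreactivity label is that of its gate of origin.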

QVQLVESGGGLVQAGGSLRLSCAASGYIFLANAMGWYRQAPGKERELVARIDTRGDSTYYADSVKGRFTISRDTAKNTVYLQMNSLKPEDTAVYYCAADQQTWWQYSLINEYDYWGQGTQLTVSS
polyreactivity (PSR sort gate): low polyreactivity

QVQLVESGGGLVQAGGSLRLSCAASGYIFLRNAKGWSRQAPGKERELVAAIRRTGGSTYYADSVKGRFTISRDIAKNTVYLDMNSLKPEDTAVYYCAKRSYTGYEYLGQGTQVTVSS
polyreactivity (PSR sort gate): low polyreactivity

QVQLVESGGGLVQAGGSLRLSCAASGYIFLRNAMGWYRQAPGKERELVAAIRRTGGSTYYADSVKGRFTISRDNAKNTVYLQMNSLKPEDTAVYYCAKRSYTGYEYWGQGTQVTVSS
polyreactivity (PSR sort gate): low polyreactivity

QVQLVESGGGLVQAGGSLRLSCAASGYIFNYAMGWYRQAPGKERQLVAAISRRGGSTYYADSVKGRFTISRDNAKNTVYLQMISLKPEDTAVYYCADRLPGYYGIGDYWGQGSQVTVSS
polyreactivity (PSR sort gate): high polyreactivity

QVQLVESGGGLVQAGGSLRLSCAASGYIFNYNAMGWYRQAPGKERELVAVIRVSVGSTYYADSVKGRFTISRDNAKNTVYLQMNSLKPEDTAVYYCAADRGARGDYWGQGTQVTVSS
polyreactivity (PSR sort gate): high polyreactivity

QVQLVESGGGLVQAGGSLRLSCAASGYIFPAYGMGWYIQAPGKERELVAAISWSTGSTYYADSVKGRFTISRDNAKNTVYLQMNSLKPEDTAVYYCDAGRPRRVPDHWYIYYYWGQATQVTVSS
polyreactivity (PSR sort gate): low polyreactivity

QVQLVESGGGLVQAGGSLRLSCAASGYIFPPYAMGWYRQAPGKERELVATITGIGGSTYYADSVKGRFTISRDNAKNTVYLQMNSLKPEDTAVYYCAARRDGYGTHYDYWGQGTQVTVSS
polyreactivity (PSR sort gate): low polyreactivity

QVQLVESGGGLVQAGGSLRLSCAASGYIFPYYTMGWYRQAPGKERELVAAITIGGSTYYADSVKGRFTISRDNAKNTVYFQMNSLKPVDTAVYYCAARSRYYDTRFDYWGQGTQVTVSS
polyreactivity (PSR sort gate): low polyreactivity

QVQLVESGGGLVQAGGSLRLSCAASGYIFQYNAMGWYRQAPGKERELVAAISRGGRTNYADSVKGRFTISRDNAKNTVYLQMNSLNPEDTAVYFCAAKRPWGYYPWSTQTGDYWGQGTQVTVSS
polyreactivity (PSR sort gate): high polyreactivity

QVQLVESGGGLVQAGGSLRLSCAASGYIFRFYTMGWYRQAPGKERELVASITRSGGSTYYADSVKGRFTISRDNAKNTVYLQMNSLKPEDTAVYYCNARKTVGMDYWGQGTQVTVSS
polyreactivity (PSR sort gate): low polyreactivity

QVQLVESGGGLVQAGGSLRLSCAASGYIFRSYAMGWYRQAPGKERELVATISWIGGGTSYADSVKGRFTISRDNAKNTVYLHMNSLIPVDTAVYYCAAGPWAYGRRHAYYSRSFDYWGQGTQVTVSS
polyreactivity (PSR sort gate): high polyreactivity

QVQLVESGGGLVQAGGSLRLSCAASGYIFRSYAMGWYRQAPGKERELVATISWIGGGTSYADSVKGRFTISRDNAKNTVYLQMNSLKPEDTAVYYCAAGPWAYGRRHAYYSRSFDYWGQGTQVTVSS
polyreactivity (PSR sort gate): high polyreactivity

QVQLVESGGGLVQAGGSLRLSCAASGYIFRVYAMGWYTPAPGKERELVAAISGSGGRTYYADSVKGRFKFSLDIAKNTVYLKMNSLKREDTAVYYCAATLYYYVGVRYDYWGQGSQVTVSS
polyreactivity (PSR sort gate): high polyreactivity

QVQLVESGGGLVQAGGSLRLSCAASGYIFRYNEMGWYRQAPGKERALVAAIRATGGSTYYADSVKGRFTISRDNAKNTVYLQMNSLKPEDTAVYYCNAGGQGRTYRYYYWGQGTQVTVSS
polyreactivity (PSR sort gate): high polyreactivity

QVQLVESGGGLVQAGGSLRLSCAASGYIFRYYAMGWYRQAPGKERELVAVISSTGTSTYYADSVKGRFTISRDNAKNTVYLQMNSLKPEDTAVYYCAVKGYFSYWRYQSDYWGQGTQVTVSS
polyreactivity (PSR sort gate): high polyreactivity

QVQLVESGGGLVQAGGSLRLSCAASGYIFRYYVMGWYRQEPGKERELVAAITFSGGNTYYADSVKGRFTISRDNAKITVYLQMNSLKPEDTAVYYCAADVLYVGGSDYDYWVQGTQVTVSS
polyreactivity (PSR sort gate): low polyreactivity

QVQLVESGGGLVQAGGSLRLSCAASGYIFSAYAMGWSRQAPGKERELVAVITSGGGTYYADSVKGRFTISRDNAKNTVYLLMNSLKTEDTAVYYCAAGPLCPYASRYGYWGQGTQVTVSS
polyreactivity (PSR sort gate): high polyreactivity

QVQLVESGGGLVQAGGSLRLSCAASGYIFSDNTMGWYRPAPGKERELVAVITSGTSTSYADSVKGRFTISRDNAKNTVYLQMNSLKPEDTAVYDCARESVTYFWYYTPEVDYWGQGTQVTVSS
polyreactivity (PSR sort gate): low polyreactivity

QVQLVESGGGLVQAGGSLRLSCAASGYIFSGYARGWYRKAPGKERELVAAISSNGGSTYYADSVKGRFTISRDNANNTVYVQMNSLKPEDTAVYYCNRGLAARVGRGDYWGQGTQVTVSS
polyreactivity (PSR sort gate): low polyreactivity

QVQLVESGGGLVQAGGSLRLSCAASGYIFSRYAMGWYRQAPGKERELVAAITRSGTRTYYADSVKGRFTISRDNAKNTVYLQMNSLKPEDTAVYYCAKEYLYSSGFDYWGQGTQVTVSS
polyreactivity (PSR sort gate): high polyreactivity

QVQLVESGGGLVQAGGSLRLSCAASGYIFTSYATMGWYRQAPGKERELVATISSGGSTNYADSVKGRVTISRDNAKNTVYLQMNSLKPEDTAVYYCYADRFYTYWGYSWVYPSGSWGQGTQVTVSS
polyreactivity (PSR sort gate): low polyreactivity

QVQLVESGGGLVQAGGSLRLSCAASGYIFTYYAMGWYRQAPGKERELVAAISRGGSTYYADSVKGRFTISRDNAKYTVYLQMNSLKPEDTAVYYCNARPRWPWVVNFGYYYWGQGTQVTVSS
polyreactivity (PSR sort gate): low polyreactivity

QVQLVESGGGLVQAGGSLRLSCAASGYIFVNAMGWYRQAPGKERELVAAISSGRSTHYADSVKGRFTISLDNAKNTVYLQLNSLKPEDTAVYYCNADLYSWYWAGYNYWGQGTQVTVSS
polyreactivity (PSR sort gate): high polyreactivity

QVQLVESGGGLVQAGGSLRLSCAASGYIFVRNAMGWSRQAPGKERELVAAISRTDGTTYYADSVKGRFTISRDNAKNTVYLQMNSLIPEDTAVYYCAADYLRAPYYQYEYWGQGTQVTVSS
polyreactivity (PSR sort gate): low polyreactivity

QVQLVESGGGLVQAGGSLRLSCAASGYIFVVNAMGWYRQAPGKERELVAAIDWGGGSTYADSVKGRFTISRDNAKNTVYLQMNSLKPEDTAVYYCAADLWPYPNDYWGQGTQVTVSS
polyreactivity (PSR sort gate): low polyreactivity

QVQLVESGGGLVQAGGSLRLSCAASGYIFWFNAMGWYRQAPGKERELVAAITSSDASTNYADSVKGRFTISRDNAKNTVYLQMNSLKPEDTAVYYCAKSSYPRDGYESWGQGTQVTVSS
polyreactivity (PSR sort gate): low polyreactivity

QVQLVESGGGLVQAGGSLRLSCAASGYIFWINAMGWYRHAPGKERDLVAAIRYSTGRTYYADSVKGRFTISRDNAKNTVYLQMNSLKPEDTAVYYCNARSWYIRGSQEYYYWGQGTQVTVSS
polyreactivity (PSR sort gate): high polyreactivity

QVQLVESGGGLVQAGGSLRLSCAASGYIFYAYAMGWYRQAPGKERELVAAISSGGGRTYYADSVKGRFTISRDNAKNTVYLQMNSLKPEDTAVYYCAARRRDRGEYYYWGQGTQVTVSS
polyreactivity (PSR sort gate): high polyreactivity

QVQLVESGGGLVQAGGSLRLSCAASGYIFYDYAMGWYRQAPGKERELVAAIRRSTGTTYYADSVKGRFTISRDNAKNTVYLQMNSLKPEDTAFYYCAALFRPRVHRYDYWGQGTQVTVSS
polyreactivity (PSR sort gate): low polyreactivity

QVQLVESGGGLVQAGGSLRLSCAASGYIFYFNAMGWYRQAPGKERELVAAISSRGTGTYADSVKGRFTISRDNAKNTVYLQMNSLKPEDTAVYYCNAYPSIYPGFYKTFFNMDYWGQGTQVTVSS
polyreactivity (PSR sort gate): low polyreactivity

QVQLVESGGGLVQAGGSLRLSCAASGYIFYFNAMGWYRQAPGKERELVAVISDRDDSTYYADSVKGRFTISRDNAKNTVYLQMNSLKPEDTAVYYCAADGDTYVDDPYDYWGQGTQVTVSS
polyreactivity (PSR sort gate): low polyreactivity

QVQLVESGGGLVQAGGSLRLSCAASGYIFYGYAMGWYRQAPGKERELVAAITGDGASTNYADSVKGRFTISRDNAKNTVYLQMNSLKPEDTAVYYCNAGRESDDVYEGSQRIGQFDYWGQGTQVTVSS
polyreactivity (PSR sort gate): low polyreactivity

QVQLVESGGGLVQAGGSLRLSCAASGYIFYPYTMGWYRPAPGKERELVAAITRSGSSTYYADSVKGRFTISRDNAKNTVYLQMNSLKPEDTAVYYCAAQRVNWYLSPSLYYYWGQGTQVTVSS
polyreactivity (PSR sort gate): high polyreactivity

QVQLVESGGGLVQAGGSLRLSCAASGYIFYRNAMGWYRQAPGKEREFVAAISSSGVSTYYADSVKGRFTISRDNAKNTVYLQMNSLKPEDTAVYYCAASYLTWKRRYDYWGQGTQVTVSS
polyreactivity (PSR sort gate): high polyreactivity

QVQLVESGGGLVQAGGSLRLSCAASGYIFYYNTMGWYRQAPGKERELVAAISSAGSTNYADSVKGRFTISRDNAKNTVYLQMNSRKPEDTAVYYCAARTRFSYRRNSYGYWGQGTQVNVSS
polyreactivity (PSR sort gate): high polyreactivity

QVQLVESGGGLVQAGGSLRLSCAASGYIIGGNAMGWYRQAPAKERELVAVISSRGGRTYYADSVKGRFTISRDNAKNTVSLQMNSQKPEDTAVYDCASIRYRGARGSGDKIFYYWGQGTQVTVSS
polyreactivity (PSR sort gate): high polyreactivity

QVQLVESGGGLVQAGGSLRLSCAASGYILWNAMGCYRQAPGKDRELVAAISSGGSTNYADSVKGRFTISRDNAKNTVYLQMNSLKPEDTAVYYCNTDRFWPSDYWGQGTQVTVSS
polyreactivity (PSR sort gate): low polyreactivity

QVQLVESGGGLVQAGGSLRLSCAASGYILYPYAMGWYRQAPGKERELVAAIRQRGGSTYYADSVKGRFTISRDNAKNTVYLQMNSLKPEDTAVYYCAAYLSPKRALTRGYGYWGQGTQVTVSS
polyreactivity (PSR sort gate): high polyreactivity

QVQLVESGGGLVQAGGSLRLSCAASGYIYIVYSMGWYRQAPVKERELVAAISSGGITDYADSVKGRFTISRDNAKNTVYLQMNSLKPEDTAVYYWGQGTQVTVSA
polyreactivity (PSR sort gate): low polyreactivity

QVQLVESGGGLVQAGGSLRLSCAASGYNFGVYAMGWYRQAPRKERELVARITSGGSTNYADSVKGRFTISRDNAKITVYLQMNSLKPEDTAVYYCAAAVGNTDREYDYWGQGTQVTVSS
polyreactivity (PSR sort gate): low polyreactivity

QVQLVESGGGLVQAGGSLRLSCAASGYNFVRNAMGWYRQAPGKERELVAAISGSGGSTYYADSVKGRFTISRDNAKNTVYLQMNSLKPEDTAVYYCAADYATVTWRGIAYDYWGQGTQVTVSS
polyreactivity (PSR sort gate): low polyreactivity

QVQLVESGGGLVQAGGSLRLSCAASGYSFYINVMGWYIQAPGKERELLAAISISGDSTYYSDSVKGRFTISRDNAKNTVYLQMNSLKPDDTALYYCAADTVSSWYYPLEDEYWGQGTQVTVSS
polyreactivity (PSR sort gate): high polyreactivity

QVQLVESGGGLVQAGGSLRLSCAASGYTFDAYAMGWYRQAHGKERELVAAINYSGGSTYADSVKGRFTISRDNAKNTVYLQMNSLKPEDTAVYYCATRLYGYWPNGFDYWGQGTQVTVSS
polyreactivity (PSR sort gate): low polyreactivity
